Results on two molecules are retold here after patent US20140120555A1 (PIERRE FABRE MEDICAMENT, published 2014).

The target of experiment [1] is T1, Recombinant mouse FcγRI [CD64], Gln25-Pro297 with C-terminal 6-His tag (mouse, UniProt P26151 25-297).
T1 construct: range 25-297; Soluble form bought from R&D Systems; also called m-FcγRI
T1 sequence: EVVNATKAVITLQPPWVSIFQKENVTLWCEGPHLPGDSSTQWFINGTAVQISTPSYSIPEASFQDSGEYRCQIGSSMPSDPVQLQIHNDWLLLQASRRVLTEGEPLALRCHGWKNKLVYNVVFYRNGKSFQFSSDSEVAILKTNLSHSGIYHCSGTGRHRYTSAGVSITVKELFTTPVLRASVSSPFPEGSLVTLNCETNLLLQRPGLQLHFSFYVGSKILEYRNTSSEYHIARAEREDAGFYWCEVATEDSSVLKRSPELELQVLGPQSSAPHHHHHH
Description: SPR (Biacore X): m-FcγRI injected over c515H7 Mab immobilized on a CM4 sensorchip; Langmuir model. Here is the method:
(§1) 2017 RU of c515H7 Mab were immobilized using the amine coupling kit chemistry on the second flowcell (FC2) of a CM4 sensorchip. The first flowcell (FC1) activated by NHS and EDC mixture and des-activated by ethanolamine served as the reference surface to check and subtract the non specific interaction between the analyte (Fc gamma receptors) and the sensorchip matrix.
(§2) The kinetic experiments were carried out at 25° Celsius at a flow rate of 30 μl/min. The HBS-EP buffer was used either as the running buffer or for the preparation of analyte solutions. The analyte solutions were injected during 90 seconds (association phase) with a 90 seconds delay (dissociation phase). An injection of running buffer as analyte was used as a double reference. All the sensorgrams were corrected by this double reference sensorgram.
(§3) After each injection of the analyte, the sensorchip was regenerated by injection of 20 mM NaOH, 75 mM NaCl solution.

For experiment [2], the target named is T1, Recombinant mouse FcγRI [CD64], …. Kind of experiment: SPR (Biacore X), Mab on CM4 chip, m-FcγRI as analyte, heterogeneous ligand model, major component; major component (81%), lower value. Here is the method:
as §1, §2
According to this model, the c515H7 Mab Fc domain may be regarded as a mixture of two components.

The target in experiment [3] is T2, Recombinant mouse FcγRIII [CD16], Ala31-Thr215 with C-terminal 10-His tag (mouse, UniProt P08508 31-215).
T2 construct: Soluble form bought from R&D Systems; also called m-FcγRIII
T2 sequence: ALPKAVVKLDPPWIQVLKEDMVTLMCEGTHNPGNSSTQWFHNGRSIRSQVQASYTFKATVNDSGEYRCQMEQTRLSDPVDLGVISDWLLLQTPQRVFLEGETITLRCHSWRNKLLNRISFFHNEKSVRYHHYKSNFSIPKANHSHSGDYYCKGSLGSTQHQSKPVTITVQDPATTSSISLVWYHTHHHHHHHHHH
Kind of experiment: SPR (Biacore X): m-FcγRIII injected over c515H7 Mab immobilized on a CM4 sensorchip; heterogeneous ligand model, minor component (1%). As for the experimental part:
as §1, §2, §3

The target in experiment [4] is T2, Recombinant mouse FcγRIII [CD16], …. Description: SPR (Biacore X): m-FcγRIII injected over c515H7 Mab immobilized on a CM4 sensorchip; heterogeneous ligand model, major component (99%). As for the experimental part:
as §1, §2, §3

Experiment [5] has the same target. Kind of experiment: SPR (Biacore X): m-FcγRIII injected over hz515H7VH1D76NVL2 Mab immobilized on a CM4 sensorchip; heterogeneous ligand model, major component (66%).
The target is the same in experiment [6]. Kind of experiment: SPR (Biacore X): m-FcγRIII injected over hz515H7VH1D76NVL2 Mab immobilized on a CM4 sensorchip; heterogeneous ligand model, minor component (34%).
The target in experiment [7] is T1, Recombinant mouse FcγRI [CD64], …. Description: SPR (Biacore X): m-FcγRI injected over hz515H7VH1D76NVL2 Mab immobilized on a CM4 sensorchip; heterogeneous ligand model, minor component (18%). As for the experimental part:
(§4) 1964 RU of hz515H7VH1D76NVL2 Mab were immobilized using the amine coupling kit chemistry on the second flowcell (FC2) of a CM4 sensorchip. The first flowcell (FC1) activated by NHS and EDC mixture and des-activated by ethanolamine served as the reference surface to check and subtract the non specific interaction between the analyte (Fc gamma receptors) and the sensorchip matrix.
as §2
After each injection of the analyte, the sensorchip was regenerated by injection of either 20 mM NaOH solution after h-FcγRI and m-FcγRIII or 10 mM NaOH after h-FcγRIIIA and m-FcγRI.

Experiment [8] addresses T2, Recombinant mouse FcγRIII [CD16], …. Kind of experiment: SPR (Biacore X): m-FcγRIII injected over hz515H7VH1D76NVL2 Mab immobilized on a CM4 sensorchip; Langmuir model. Here is the method: as §4, §2
Using the Langmuïr model the constant of dissociation was around 17 and 18 nM.

B1: chimeric antibody c515H7 (antibody, human IgG1, kappa)
heavy: not shown
light: DIVMSQSPSSLAVSAGEKVTMSCKSSQSLFNSRTRKNYLAWYQQKPGQSPKLLIYWASARDSGVPARFTGSGSETYFTLTISRVQAEDLAVYYCMQSFNLRTFGGGTKLEIKRTVAAPSVFIFPPSDEQLKSGTASVVCLLNNFYPREAKVQWKVDNALQSGNSQESVTEQDSKDSTYSLSSTLTLSKADYEKHKVYACEVTHQGLSSPVTKSFNRGEC
notes: Human IgG1/kappa constant domains; also called c515H7 Mab; chimeric 515H7
Turning to B1, the dissociation constant Kd is 106 nM in experiment [1], around 380 nM in experiment [2], 67 nM in experiment [3] and 20.9 nM in experiment [4]. The figures for the koff in experiment [1], in experiment [3] and in experiment [4] were 0.0661 s⁻¹, 0.0024 s⁻¹ and 0.00446 s⁻¹, respectively. The kon turned out to be 622000 M⁻¹ s⁻¹ in experiment [1], 40000 M⁻¹ s⁻¹ in experiment [3] and 213000 M⁻¹ s⁻¹ in experiment [4].

B2: humanized antibody Hz515H7 VH1 D76N VL2 (antibody, human IgG1, kappa)
heavy: not shown
light: DIVMTQSPSSLAVSLGERATMSCKSSQSLFNSRTRKNYLAWYQQKPGQSPKLLIYWASARDSGVPARFTGSGSETYFTLTISRVQAEDLAVYYCMQSFNLRTFGQGTKVEIKRTVAAPSVFIFPPSDEQLKSGTASVVCLLNNFYPREAKVQWKVDNALQSGNSQESVTEQDSKDSTYSLSSTLTLSKADYEKHKVYACEVTHQGLSSPVTKSFNRGEC
notes: IgG1/kappa; also called hz515H7VL2; hz515H7-1
In the case of B2, the Kd in experiment [5] stood at 0.2 nM; in experiment [6], 61.4 nM; in experiment [7], 90.9 nM; in experiment [8] it was 17.4 nM. Also, the off-rate (koff) was 3.7e-05 s⁻¹ in experiment [5], 0.0299 s⁻¹ in experiment [6], 0.022 s⁻¹ in experiment [7] and 0.00364 s⁻¹ in experiment [8]. Moreover, the kon in experiment [5] stood at 178000 M⁻¹ s⁻¹; in experiment [6], 487000 M⁻¹ s⁻¹; in experiment [7], 242000 M⁻¹ s⁻¹; in experiment [8] it was 209000 M⁻¹ s⁻¹.
